This is an account of results in patent US20150259721A1.

The assay addresses Her2 (UniProt P04626). Briefly: cell-based or functional assay.

Consider 4D5-AzAb (HC274)-AF (antibody), for which the EC50 nM, concentration of the drug to kill 50% of the tumor cells in vitro, HCC1954 cells worked out at 0.0212 nM; the EC50 nM, concentration of the drug to kill 50% of the tumor cells in vitro, SKOV3 cells amounted to 0.187 nM; the EC50 nM, in vitro potency (cytotoxicity), SKBR3 cells came out at 0.0074 nM; the EC50 nM, in vitro potency (cytotoxicity), SKOV3 cells amounted to 0.019 nM.
4D5-AzAb (HC274: LC81)-AF (antibody) returned an EC50 nM, concentration of the drug to kill 50% of the tumor cells in vitro, HCC1954 cells of 0.0149 nM and an EC50 nM, concentration of the drug to kill 50% of the tumor cells in vitro, SKOV3 cells of 0.0523 nM.
As to 4D5-AzAb (HC359)-AF (antibody), the EC50 nM, concentration of the drug to kill 50% of the tumor cells in vitro, HCC1954 cells is 0.0241 nM; the EC50 nM, concentration of the drug to kill 50% of the tumor cells in vitro, PC3 cells came out at 1.33 nM; the EC50 nM, concentration of the drug to kill 50% of the tumor cells in vitro, SKOV3 cells turned out to be 0.16 nM.
As for 4D5-AzAb (LC81)-AF (antibody), the EC50 nM, concentration of the drug to kill 50% of the tumor cells in vitro, HCC1954 cells was determined as 0.0437 nM; the EC50 nM, concentration of the drug to kill 50% of the tumor cells in vitro, PC3 cells was 1.13 nM; the EC50 nM, concentration of the drug to kill 50% of the tumor cells in vitro, SKOV3 cells was 0.201 nM.
